{"source": "patent US20140162285A1", "about": "“Methods of Modulating Vesicular Trafficking” (The General Hospital Corporation, priority 2009, published 2014)", "molecules": {"B1": {"name": "a2N: recombinant N-terminal cytosolic tail, amino acid residues 1-402 of mouse V-ATPase a2-subunit (protein)", "chain": "MGSLFRSESMCLAQLFLQSGTAYECLSALGEKGLVQFRDLNQNVSSFQRKFVGEVKRCEELERILVYLVQEITRADIPLPEGEASPPAPPLKHVLEMQEQLQKLEVELREVTKNKEKLRKNLLELVEYTHMLRVTKTFLKRNVEFEPTYEEFPALENDSLLDYSCMQRLGAKLGFVSGLIQQGRVEAFERMLWRACKGYTIVTYAELDECLEDPETGEVIKWYVFLISFWGEQIGHKVKKICDCYHCHIYPYPNTAEERREIQEGLNTRIQDLYTVLHKTEDYLRQVLCKAAESVCSRVVQVRKMKAIYHMLNMCSFDVTNKCLIAEVWCPEVDLPGLRRALEEGSRESGATIPSFMNTIPTKETPPTLIRTNKFTEGFQNIVDAYGVGSYREVNPALFTII", "modifications": "left off: small tags and cut ends", "notes": "recombinant N-terminal cytosolic tail, amino acid residues 1-402 of mouse V-ATPase a2-subunit"}}, "molecular_target": "T1, ARNO PH-domain (Homo sapiens, UniProt Q99418)", "T1 construct": "iv) 253-378aa, plekstrin-homology (PH) domain; made in house; host or cells: E. coli BL21(DE3)", "T1 sequence (Q99418 253-378)": "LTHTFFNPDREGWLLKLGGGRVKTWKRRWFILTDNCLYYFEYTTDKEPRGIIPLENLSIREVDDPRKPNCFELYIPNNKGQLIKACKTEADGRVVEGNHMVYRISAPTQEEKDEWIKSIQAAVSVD", "test": "GST pull-down of in vitro translated a2N with ARNO PH-domain", "type": "binding", "conditions": "Western blot anti-a2N", "method": "The purified recombinant GST-ARNO(wt) and GST-tagged ARNO domain constructs ([…]) were incubated with 10 μl of in vitro translated 6His-a2N recombinant protein at 4° C. for 2 hours in 500 μl of binding buffer (10 mM HEPES, 1 mM EDTA, 1 mM DTT, 100 mM NaCl, 10% glycerol, 0.1% NP-40) with gentle rotation. Then the interacting recombinant proteins were immobilized on glutathione beads by incubation with 50 μl of 50% glutathione Sepharose 4B slurry for 2 hours at 4° C. The beads were collected by centrifugation and washed 5 times with 500 μl ice-cold binding buffer. Interacting proteins were eluted by boiling in SDS-PAGE sample buffer for 10 min at 95° C., resolved by SDS-PAGE and analyzed by Western blotting using polyclonal anti-a2N antibodies. […]\nTo examine the ability of these well-defined and functionally distinct domains of ARNO to interact with a2N1-402, full-length ARNO(wt) and its four domains were cloned separately for bacterial expression of recombinant proteins (FIG. 3). […] Interacting proteins were detected by western blot analysis with a2-specific antibodies as described above."}
{"molecule": "B1", "values": [{"measurement": "interaction of a2N with ARNO PH-domain", "value": "weakly"}]}
